Assay results from patent publication US20140170149A1 (Genmab, published 2014).
Read-outs that look alike come from different tables or passages of the source.

How the values were obtained:
[1] = molecular target: T1, human CD3 protein complex (human, UniProt P07766 23-207; P09693 23-182; P04234 22-171; P20963 22-164); assay: flow cytometry on Jurkat cells (CD3-expressing T cell line), MFI (PE) (Example 21)
T1 construct: whole, on cells; also called CD3 on Jurkat cells

[2] = molecular target: T1, human CD3 protein complex; assay: as above; remark: listed apart in the source
[3] = molecular target: T1, human CD3 protein complex; assay: as above; remark: listed apart in the source
[4] = molecular target: T2, human epidermal growth factor receptor 2 (HER2) (human, UniProt P04626 23-1255); assay: cell-based or functional assay
[5] = molecular target: T2, human epidermal growth factor receptor …; assay: flow cytometry on CHO-S cells transiently transfected with hu-HER2, PE-goat anti-human IgG, MFI (Example 24)
[6] = molecular target: T2, human epidermal growth factor receptor …; assay: flow cytometry on A431 cells (low HER2), PE-goat anti-human IgG, MFI; EC50 by non-linear regression (Example 12)
Protocol: (§1) Binding of HER2 antibodies was detected using a Phycoerythrin (PE)-conjugated goat-anti-human IgG antibody (Jackson). […] EC₅₀ values were determined by means of non-linear regression (sigmoidal dose-response with variable slope) using GraphPad Prism V4.03 software (GraphPad Software, San Diego, Calif., USA).

[7] = molecular target: T2, human epidermal growth factor receptor …; assay: flow cytometry on AU565 cells (high HER2), PE-goat anti-human IgG, MFI; EC50 by non-linear regression (Example 12)
Protocol: as §1

T1 sequence (P07766 23-207, form in doubt, chain 1 of 4): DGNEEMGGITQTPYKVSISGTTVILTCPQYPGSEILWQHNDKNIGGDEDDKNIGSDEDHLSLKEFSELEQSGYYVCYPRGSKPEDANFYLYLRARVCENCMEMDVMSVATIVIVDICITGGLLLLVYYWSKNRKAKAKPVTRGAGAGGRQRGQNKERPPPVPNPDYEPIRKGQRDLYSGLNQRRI
T1 sequence (P09693 23-182, form in doubt, chain 2 of 4): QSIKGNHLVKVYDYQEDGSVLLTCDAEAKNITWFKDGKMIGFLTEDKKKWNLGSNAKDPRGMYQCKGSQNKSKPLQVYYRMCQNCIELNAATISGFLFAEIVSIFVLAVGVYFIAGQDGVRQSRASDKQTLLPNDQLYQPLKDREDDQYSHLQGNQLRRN
T1 sequence (P04234 22-171, form in doubt, chain 3 of 4): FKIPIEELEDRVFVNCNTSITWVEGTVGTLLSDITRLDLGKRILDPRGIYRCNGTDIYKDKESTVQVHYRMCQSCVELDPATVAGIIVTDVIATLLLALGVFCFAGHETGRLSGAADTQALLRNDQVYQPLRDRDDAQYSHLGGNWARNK
T1 sequence (P20963 22-164, form in doubt, chain 4 of 4): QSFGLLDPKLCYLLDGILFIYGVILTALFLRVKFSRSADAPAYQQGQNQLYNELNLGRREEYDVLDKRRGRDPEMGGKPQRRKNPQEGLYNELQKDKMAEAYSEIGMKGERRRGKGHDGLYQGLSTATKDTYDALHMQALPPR

B1: IgG1-hu-CLB-T3/4-F405L × IgG1-HER2-169-K409R (bispecific antibody)
heavy 1: not shown
VL 1: EIVLTQSPATLSLSPGERATLSCRASQSVSSYLAWYQQKPGQAPRLLIYDASNRATGIPARFSGSGSGTDFTLTISSLEPEDFAVYYCQQRSNWPRTFGQGTKVEIK
heavy 2: not shown
VL 2: EIVLTQSPATLSLSPGERATLSCSASSSVTYVHWYQQKPGQAPRLLIYDTSKLASGIPARFSGSGSGTDFTLTISSLEPEDFAVYYCFQGSGYPLTFGSGTKLEMR
notes: Made by 2-MEA-induced Fab-arm exchange; IgG1,κ
**Q.** For B1, which “EC50 (read off the curve)” value [1] is on record?
**A.** Its value is ~0.2 µg/mL.

B2: huCLB-T3/4-F405L x b12-K409R (bispecific antibody)
heavy chain, CD3 arm (huCLB-T3/4, IgG1-F405L): not shown
light chain, CD3 arm: EIVLTQSPATLSLSPGERATLSCSASSSVTYVHWYQQKPGQAPRLLIYDTSKLASGIPARFSGSGSGTDFTLTISSLEPEDFAVYYCFQGSGYPLTFGSGTKLEMR
heavy chain, b12 arm (IgG1-K409R): not shown
light chain, b12 arm: EIVLTQSPGTLSLSPGERATFSCRSSHSIRSRRVAWYQHKPGQAPRLVIHGVSNRASGISDRFSGSGSGTDFTLTITRVEPEDFALYYCQVYGASSYTFGQGTKLERK
notes: also called huCLB-T3/4 x b12; CD3xb12 control
**Q.** B2 was tested. Which “EC50 (read off the curve)” value [1] did it give?
**A.** The value was ~0.2 µg/mL.

B3: IgG1-huOKT3-F405L (antibody, V domains shown)
VH: QVQLVQSGGGVVQPGRSLRLSCKASGYTFTRYTMHWVRQAPGKGLEWIGYINPSRGYTNYNQKVKDRFTISRDNSKNTAFLQMDSLRPEDTGVYFCARYYDDHYSLDYWGQGTPVTVSS
VL: DIQMTQSPSSLSASVGDRVTITCSASSSVSYMNWYQQTPGKAPKRWIYDTSKLASGVPSRFSGSGSGTDYTFTISSLQPEDIATYYCQQWSSNPFTFGQGTKLQIT
notes: Expressed as IgG1,κ with F405L; also called huOKT3-C114S-gLC; IgG1-OKT3
**Q.** B3 was tested. Which “EC50 (read off the curve)” value [2] did it give?
**A.** Its value is ~0.02 µg/mL.

B4: huOKT3-F405L x b12-K409R (bispecific antibody)
heavy chain, CD3 arm (huOKT3-C114S-gLC, IgG1-F405L): not shown
light chain, CD3 arm: DIQMTQSPSSLSASVGDRVTITCSASSSVSYMNWYQQTPGKAPKRWIYDTSKLASGVPSRFSGSGSGTDYTFTISSLQPEDIATYYCQQWSSNPFTFGQGTKLQIT
heavy chain, b12 arm (IgG1-K409R): not shown
light chain, b12 arm: EIVLTQSPGTLSLSPGERATFSCRSSHSIRSRRVAWYQHKPGQAPRLVIHGVSNRASGISDRFSGSGSGTDFTLTITRVEPEDFALYYCQVYGASSYTFGQGTKLERK
notes: also called huOKT3 x b12; CD3xb12 control
**Q.** How did the “EC50 (read off the curve)” value [2] turn out when B4 was run?
**A.** Its value is ~3 µg/mL.

B5: IgG1-HUM291-F405L (antibody, V domains shown)
VH: QVQLVQSGAEVKKPGASVKVSCKASGYTFISYTMHWVRQAPGQGLEWMGYINPRSGYTHYNQKLKDKATLTADKSASTAYMELSSLRSEDTAVYYCARSAYYDYDGFAYWGQGTLVTVSS
VL: DIQMTQSPSSLSASVGDRVTITCSASSSVSYMNWYQQKPGKAPKRLIYDTSKLASGVPSRFSGSGSGTDFTLTISSLQPEDFATYYCQQWSSNPPTFGGGTKVEIK
notes: Expressed as IgG1,κ with F405L; also called visilizumab
**Q.** For B5, which “EC50 (read off the curve)” value [3] is on record?
**A.** The value was ~0.02 µg/mL.

B6: HER2 HuMab 153 (antibody, V domains shown)
VH: QVQLVESGGGVVQPGRSLRLSCAASGFTFSDYVIHWVRQAPGKGLEWVTVISYDGSNKYYADSVKGRFTISRDNSKNTLYLQMNSLSAEDTAMYYCARGGITGTTGVFDYWGQGTLVTVSS
VL: DIQMTQSPSSLSASVGDRVTITCRASQGISSWLAWYQQKPEKAPKSLIYDASSLQSGVPSRFSGSGYGTDFSLTISSLQPEDFAIYYCQQYKSYPITFGQGTRLEIK
notes: also called PC1014-153; TH1014-153
**Q.** How did the “EC50, fab-CypHer5E internalization assay, AU565 cells” value [4] turn out when B6 was run?
**A.** Its value is ~0.0149 µg/mL.

**Q.** And the “Maximal MFI, fab-CypHer5E internalization assay, AU565 cells” value [4]?
**A.** The value was 87500 MFI.

**Q.** What about the “EC50 (read off the curve)” value [5] of the same binder?
**A.** The value was ~0.04 µg/mL.

**Q.** And the EC50 [6]?
**A.** Its EC50 is 0.244 µg/mL.

**Q.** And the EC50 [7]?
**A.** The EC50 was 0.626 µg/mL.

B7: IgG1-hu-CLB-T3/4-F405L × IgG1-HER2-153-K409R (bispecific antibody)
heavy 1: not shown
VL 1: DIQMTQSPSSLSASVGDRVTITCRASQGISSWLAWYQQKPEKAPKSLIYDASSLQSGVPSRFSGSGYGTDFSLTISSLQPEDFAIYYCQQYKSYPITFGQGTRLEIK
heavy 2: not shown
VL 2: EIVLTQSPATLSLSPGERATLSCSASSSVTYVHWYQQKPGQAPRLLIYDTSKLASGIPARFSGSGSGTDFTLTISSLEPEDFAVYYCFQGSGYPLTFGSGTKLEMR
notes: Made by 2-MEA-induced Fab-arm exchange; IgG1,κ; also called huCLB-T3/4×HER2 153
**Q.** How did the “EC50 (read off the curve)” value [1] turn out when B7 was run?
**A.** The value was ~0.2 µg/mL.

B8: IgG1-huOKT3-F405L × IgG1-HER2-153-K409R (bispecific antibody)
heavy 1: not shown
VL 1: DIQMTQSPSSLSASVGDRVTITCRASQGISSWLAWYQQKPEKAPKSLIYDASSLQSGVPSRFSGSGYGTDFSLTISSLQPEDFAIYYCQQYKSYPITFGQGTRLEIK
heavy 2: not shown
VL 2: DIQMTQSPSSLSASVGDRVTITCSASSSVSYMNWYQQTPGKAPKRWIYDTSKLASGVPSRFSGSGSGTDYTFTISSLQPEDIATYYCQQWSSNPFTFGQGTKLQIT
notes: Made by 2-MEA-induced Fab-arm exchange; IgG1,κ; also called huOKT3×153
**Q.** For B8, which “EC50 (read off the curve)” value [2] is on record?
**A.** Its value is ~2 µg/mL.

B9: IgG1-HUM291-F405L × IgG1-HER2-153-K409R (bispecific antibody)
heavy 1: not shown
VL 1: DIQMTQSPSSLSASVGDRVTITCRASQGISSWLAWYQQKPEKAPKSLIYDASSLQSGVPSRFSGSGYGTDFSLTISSLQPEDFAIYYCQQYKSYPITFGQGTRLEIK
heavy 2: not shown
VL 2: DIQMTQSPSSLSASVGDRVTITCSASSSVSYMNWYQQKPGKAPKRLIYDTSKLASGVPSRFSGSGSGTDFTLTISSLQPEDFATYYCQQWSSNPPTFGGGTKVEIK
notes: Made by 2-MEA-induced Fab-arm exchange; IgG1,κ; also called HUM291×153
**Q.** With B9 as the binder, how does the “EC50 (read off the curve)” value [3] read?
**A.** Its value is ~2 µg/mL.
